Measurements as given in patent US20250296984A1, “THERAPEUTIC AND DIAGNOSTIC AGENTS AND USES THEREOF” (priority 2022, published 2025).
Where a chain is given by its changes, count along the chain named. Where “and” joins values, the source holds several entries; their conditions need not be identical. Identical values can stand only once.

Experiments:
[1] = target: Bio-Peptide-2 (human cytomegalovirus (4D variant)); assay: ELISA (FIG. 5)
[2] = target: Bio-Peptide-2 (human cytomegalovirus (4D variant)); assay: ELISA, Bio-Peptide-2 coated
[3] = target: Peptide-N-BSA (human cytomegalovirus); assay: ELISA, Peptide-N-BSA coated
[4] = target: Peptide 3 (human cytomegalovirus); assay: HuProt array, 0.1 µg/ml

B1: US28-13-5G6-1D3 (antibody)
heavy: EVKLVESGGGLVQPGGSLRLACATSGFTFTDYYMSWVRQPPGKALEWLGFIRSKANGYTTEYSASVKGRFTISRDNSQSILYLQMNTLRSEDSATYYCARDERRTAWLAYWGQGTLVTVSAAKTTPPSVYPLAPGSAAQTNSMVTLGCLVKGYFPEPVTVTWNSGSLSSGVHTFPAVLQSDLYTLSSSVTVPSSTWPSETVTCNVAHPASSTKVDKKIVPRDCGCKPCICTVPEVSSVFIFPPKPKDVLTITLTPKVTCVVVDISKDDPEVQFSWFVDDVEVHTAQTQPREEQFNSTFRSVSELPIMHQDWLNGKEFKCRVNSAAFPAPIEKTISKTKGRPKAPQVYTIPPPKEQMAKDKVSLTCMITDFFPEDITVEWQWNGQPAENYKNTQPIMDTDGSYFIYSKLNVQKSNWEAGNTFTCSVLHEGLHNHHTEKSLSHSPGK
light: DVLMTQTPLSLPVSLGDQASISCRSSQSIVHSNGNTYLDWYLQKPGQSPKLLIYKVSNRFSGVPDRFSGSGSGTDFTLKISRVEAEDLGVYYCFQGSHVPTWTFGGGTKLEIKRADAAPTVSIFPPSSEQLTSGGASVVCFLNNFYPKDINVKWKIDGSERQNGVLNSWTDQDSKDSTYSMSSTLTLTKDEYERHNSYTCEATHKTSTSPIVKSFNRNEC
[1]
  fold binding over BSA control: 27 fold and 28 fold

B2: US28-14-4E4-1E8 (antibody, mouse IgG1, kappa)
heavy: not shown
light: QIVLSQSPTIMSASPGEKVTMTCSASSSVSYMHWYQQKSGTSPKRWIYDSSKLASGVPARFSGSGSGTSYSLTISSMEAEDAATYYCQQWTSNPPITFGAGTKLELKRADAAPTVSIFPPSSEQLTSGGASVVCFLNNFYPKDINVKWKIDGSERQNGVLNSWTDQDSKDSTYSMSSTLTLTKDEYERHNSYTCEATHKTSTSPIVKSFNRNEC
[2]
  absorbance: 2.87

B3: US28-13-1H3-1A10 (antibody, mouse IgG1, kappa)
heavy: EVKLVESGGVLVKPGGSLKFSCAASGFTLSSHALSWVRQTPEKRLEWVASISSRGRTYYPDSVKGRFTVSRDNARNILYLQVSSLRSEDTAMYYCTRGGTHYSYGNGFDFWGQGTTLTVSSAKTTPPSVYPLAPGSAAQTNSMVTLGCLVKGYFPEPVTVTWNSGSLSSGVHTFPAVLQSDLYTLSSSVTVPSSTWPSETVTCNVAHPASSTKVDKKIVPRDCGCKPCICTVPEVSSVFIFPPKPKDVLTITLTPKVTCVVVDISKDDPEVQFSWFVDDVEVHTAQTQPREEQFNSTFRSVSELPIMHQDWLNGKEFKCRVNSAAFPAPIEKTISKTKGRPKAPQVYTIPPPKEQMAKDKVSLTCMITDFFPEDITVEWQWNGQPAENYKNTQPIMDTDGSYFIYSKLNVQKSNWEAGNTFTCSVLHEGLHNHHTEKSLSHSPGK
light: B2 light with S5T, T9A, A25V, S50T, S76T, T91S, S92N
[2]
  absorbance: 2.84

B4: US28-13-1C10-1C10 (antibody, mouse IgG1, kappa)
heavy: B3 heavy with L29F
light: B2 light with S5T, T9A, A25V, S50T, S76T, T91S, S92N
[2]
  absorbance: 3.03

B5: US28-13-1C10-1G9 (antibody, mouse IgG1, kappa)
heavy: not shown
light: B2 light with S5T, T9A, S50T, T91S, I96L
[2]
  absorbance: 3.06

B6: US28-4-7B1F3 (antibody, mouse IgG1, kappa)
heavy: EVQLQQSGAELAKPGASVKMSCKASGYTFTNYWMHWVKQRPGQGLEWIGYVNPRTGYTEYNQKFKDKATLTADKSSRTAYMQLSSLTSEDSAVYSCARILNGTGFAYWGQGTLVTVSAAKTTPPSVYPLAPGSAAQTNSMVTLGCLVKGYFPEPVTVTWNSGSLSSGVHTFPAVLQSDLYTLSSSVTVPSSTWPSETVTCNVAHPASSTKVDKKIVPRDCGCKPCICTVPEVSSVFIFPPKPKDVLTITLTPKVTCVVVDISKDDPEVQFSWFVDDVEVHTAQTQPREEQFNSTFRSVSELPIMHQDWLNGKEFKCRVNSAAFPAPIEKTISKTKGRPKAPQVYTIPPPKEQMAKDKVSLTCMITDFFPEDITVEWQWNGQPAENYKNTQPIMDTDGSYFIYSKLNVQKSNWEAGNTFTCSVLHEGLHNHHTEKSLSHSPGK
light: DIVLTQSPSSLTVSVGEKFTMSCKSSQSLLYSSNQKNYLAWYQQKPGQSPKLLIYWASTRESGVPDRFTGSGSGTDFTLAISSVKPEDLAIYYCQQYYSFPLTFGAGTKLEIKRADAAPTVSIFPPSSEQLTSGGASVVCFLNNFYPKDINVKWKIDGSERQNGVLNSWTDQDSKDSTYSMSSTLTLTKDEYERHNSYTCEATHKTSTSPIVKSFNRNEC
[3]
  absorbance: 2.8
[4]
  F635: 50000 AU
  S Score: 116
  Z Score: 145
